The results in this text go back to paper PMC3883301, “FLC-mediated flowering repression is positively regulated by sumoylation” (Journal of Experimental Botany, 2013).

B1: His6-FLC (flowering locus C, full length) (natural protein, Arabidopsis thaliana, UniProt Q9S7Q7 1-196, looked up)
chain: MGRKKLEIKRIENKSSRQVTFSKRRNGLIEKARQLSVLCDASVALLVVSASGKLYSFSSGDNLVKILDRYGKQHADDLKALDHQSKALNYGSHYELLELVDSKLVGSNVKNVSIDALVQLEEHLETALSVTRAKKTELMLKLVENLKEKEKMLKEENQVLASQMENNHHVGAEAEMEMSPAGQISDNLPVTLPLLN
notes: Flowering locus C (FLC), MADS-box transcription factor, Arabidopsis; full-length cDNA in pET28a; The printed name puts His6 before FLC; also called Arabidopsis FLC; source: E. coli BL21/DE3 (pLysS), purified (Ni2+-NTA resin)

In assay [1] the target is T1, GST–FLC, full length (Arabidopsis thaliana, UniProt Q9S7Q7 1-196).
T1 construct: Flowering locus C (FLC), Arabidopsis, full-length GST–FLC bait; The construct section describes only GST–FLC-Myc (pGEX4T-1)
T1 sequence (looked up): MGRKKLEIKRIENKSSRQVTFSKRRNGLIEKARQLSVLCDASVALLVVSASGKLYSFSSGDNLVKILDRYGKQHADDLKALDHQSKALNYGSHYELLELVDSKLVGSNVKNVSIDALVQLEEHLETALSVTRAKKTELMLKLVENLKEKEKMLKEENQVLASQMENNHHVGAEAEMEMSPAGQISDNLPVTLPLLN
Briefly: pull-down; 2 μg GST–FLC bait and 2 μg His6-FLC or His6-mFLC prey in 1 ml binding buffer (50 mM TRIS-HCl pH 7.5, 100 mM NaCl, 1% Triton X-100, 0.2% glycerol, 0.5 mM β-mercaptoethanol); 25 °C 2 h; glutathione resin; anti-His blot. The note with it: both partners purified.

Assay [2] addresses B1. Briefly: pull-down; 2 μg GST–AtSIZ1 (full length or deletion mutant) or GST bait and 2 μg His6-FLC prey in 1 ml 50 mM TRIS-HCl pH 7.5, 100 mM NaCl, 1% Triton X-100, 0.2% glycerol, 0.5 mM β-mercaptoethanol; 25 °C 2 h; glutathione resin; anti-His blot. The note with it: both partners purified.

As to B1, the binding result in assay [1] is given as “binds”.

B2: His6-mFLC (FLC K154R) (natural protein, Arabidopsis thaliana, UniProt Q9S7Q7 1-196, looked up)
chain: MGRKKLEIKRIENKSSRQVTFSKRRNGLIEKARQLSVLCDASVALLVVSASGKLYSFSSGDNLVKILDRYGKQHADDLKALDHQSKALNYGSHYELLELVDSKLVGSNVKNVSIDALVQLEEHLETALSVTRAKKTELMLKLVENLKEKEKMLREENQVLASQMENNHHVGAEAEMEMSPAGQISDNLPVTLPLLN
notes: Flowering locus C (FLC), Arabidopsis, full length with the sumoylation site mutation K154R; The construct section describes His6-FLC(K154R)-Myc only; also called mutant FLC; source: E. coli BL21, purified (Ni2+-NTA resin)
For B2, the binding result in assay [1] was “binds”.

B3: GST–AtSIZ1 (D3), amino acids 1–100 (domain or fragment, Arabidopsis thaliana, UniProt Q680Q4 1-100, looked up)
chain: MDLEANCKEKLSYFRIKELKDVLTQLGLSKQGKKQELVDRILTLLSDEQAARLLSKKNTVAKEAVAKLVDDTYRKMQVSGASDLASKGQVSSDTSNLKVK
notes: AtSIZ1, Arabidopsis, amino acids 1-100 (N-terminal region containing the SAP domain), in pGEX4T-1; also called N-terminal region containing the SAP domain of AtSIZ1; source: E. coli BL21/DE3 (pLysS), purified (glutathione resin)
Turning to B3, the binding result in assay [2] is “binds”.
